Laboratory results as given in article PMC4159138, “Fission Yeast Pxd1 Promotes Proper DNA Repair by Activating Rad16^XPF and Inhibiting Dna2” (PLoS Biology, 2014).

Tests used:
Dna2;Cdc24-YFH = Dna2;Cdc24-YFH (Schizosaccharomyces …, UniProt Q9URU2;O75004 1-1397;1-501, |); test: EMSA; 1 mM EDTA, no divalent cations; 100-300 ng Dna2-Cdc24; 50 mM Tris-HCl pH 7.5, 1 mM EDTA, 1 mM DTT, 0.1 mg/ml BSA, 50 mM NaCl, 5% glycerol, 15 fmol DNA in 10 µl, room temperature 30 min; 5% PAGE in 1x TBE; settings: protein: native;native; tags: none stated (co-expressed with Cdc24-YFH);YFP-FLAG-His6; copies: 1;1; label: 5' 32P on oligo461; 18 bp duplex with 5' overhang 31 nt on oligo461
Dna2;Cdc24-YFH, sequence (Q9URU2 whole entry, chain 1 of 2): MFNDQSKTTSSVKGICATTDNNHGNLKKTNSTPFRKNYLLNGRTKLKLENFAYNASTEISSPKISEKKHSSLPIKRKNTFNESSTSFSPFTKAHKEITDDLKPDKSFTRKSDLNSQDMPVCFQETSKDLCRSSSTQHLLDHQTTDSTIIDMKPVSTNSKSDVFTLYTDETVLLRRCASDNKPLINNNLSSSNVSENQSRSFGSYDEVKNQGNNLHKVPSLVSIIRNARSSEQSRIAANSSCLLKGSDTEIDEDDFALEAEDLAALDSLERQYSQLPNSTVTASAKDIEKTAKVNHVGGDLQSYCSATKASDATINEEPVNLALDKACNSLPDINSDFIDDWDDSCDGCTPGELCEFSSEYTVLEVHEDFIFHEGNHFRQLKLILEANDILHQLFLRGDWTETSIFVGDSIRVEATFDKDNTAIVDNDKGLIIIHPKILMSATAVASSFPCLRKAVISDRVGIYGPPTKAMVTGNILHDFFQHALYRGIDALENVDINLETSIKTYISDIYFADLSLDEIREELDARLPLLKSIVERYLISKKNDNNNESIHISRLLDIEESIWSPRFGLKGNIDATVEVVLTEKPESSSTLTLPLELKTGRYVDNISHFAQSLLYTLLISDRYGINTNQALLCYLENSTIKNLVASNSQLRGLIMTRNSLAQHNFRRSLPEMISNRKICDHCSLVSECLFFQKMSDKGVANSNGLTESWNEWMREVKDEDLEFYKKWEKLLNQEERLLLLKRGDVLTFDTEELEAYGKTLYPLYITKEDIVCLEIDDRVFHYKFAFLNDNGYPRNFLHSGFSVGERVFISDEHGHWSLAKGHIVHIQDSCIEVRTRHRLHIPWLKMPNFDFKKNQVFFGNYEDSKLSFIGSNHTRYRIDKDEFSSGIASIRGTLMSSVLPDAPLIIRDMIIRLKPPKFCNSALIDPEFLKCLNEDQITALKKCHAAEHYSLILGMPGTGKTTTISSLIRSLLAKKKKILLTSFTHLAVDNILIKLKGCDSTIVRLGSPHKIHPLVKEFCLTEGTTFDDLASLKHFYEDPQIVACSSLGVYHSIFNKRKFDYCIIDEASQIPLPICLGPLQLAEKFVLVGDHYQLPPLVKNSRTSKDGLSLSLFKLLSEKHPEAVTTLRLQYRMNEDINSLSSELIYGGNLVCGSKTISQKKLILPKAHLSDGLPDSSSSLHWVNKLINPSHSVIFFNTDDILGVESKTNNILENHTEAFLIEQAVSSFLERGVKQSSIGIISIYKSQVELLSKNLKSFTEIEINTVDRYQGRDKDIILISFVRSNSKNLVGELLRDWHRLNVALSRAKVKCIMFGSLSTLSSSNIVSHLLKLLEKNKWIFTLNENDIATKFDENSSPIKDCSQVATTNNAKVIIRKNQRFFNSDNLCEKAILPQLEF
Dna2;Cdc24-YFH, sequence (O75004 whole entry, chain 2 of 2): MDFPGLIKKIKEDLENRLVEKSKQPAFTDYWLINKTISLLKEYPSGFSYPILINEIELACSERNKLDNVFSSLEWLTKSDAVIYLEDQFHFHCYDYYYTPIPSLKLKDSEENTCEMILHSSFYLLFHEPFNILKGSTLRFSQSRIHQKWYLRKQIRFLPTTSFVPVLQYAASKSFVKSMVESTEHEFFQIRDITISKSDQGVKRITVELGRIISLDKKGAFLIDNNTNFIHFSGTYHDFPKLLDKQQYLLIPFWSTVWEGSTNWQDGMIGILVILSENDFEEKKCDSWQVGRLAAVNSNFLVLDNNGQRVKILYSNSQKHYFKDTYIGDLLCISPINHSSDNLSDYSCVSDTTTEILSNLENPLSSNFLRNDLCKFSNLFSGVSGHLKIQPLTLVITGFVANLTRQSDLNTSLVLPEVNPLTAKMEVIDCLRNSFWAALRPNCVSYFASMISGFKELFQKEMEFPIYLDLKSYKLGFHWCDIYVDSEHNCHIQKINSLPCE

Dna2;Cdc24-YFH;RPA = Dna2;Cdc24-YFH;RPA (Schizosaccharomyces …, UniProt Q9URU2;O75004;Q92372;Q92373;Q92374 1-1397;1-501;1-609;1-279;1-104, ||); test: EMSA; 1 mM EDTA; supershifted higher-order complex, no Pxd1; 50 mM Tris-HCl pH 7.5, 1 mM EDTA, 1 mM DTT, 0.1 mg/ml BSA, 50 mM NaCl, 5% glycerol, 15 fmol DNA in 10 µl, room temperature 30 min; 5% PAGE in 1x TBE; settings: protein: native;native;recombinant; tags: none stated (co-expressed with Cdc24-YFH);YFP-FLAG-His6;6xHis-GST on Rpa1 in plasmid pDB2129; copies: 1;1;1;1;1; label: 5' 32P on oligo461; 18 bp duplex with 5' overhang 31 nt on oligo461

B1: 5' overhang DNA (oligo461/oligo463) (dsDNA)
DNA 1: CACGCTACCGAATTCTGACTTGCTAGGACATCTTTGCCCACGTTGACCC
DNA 2: GGGTCAACGTGGGCAAAG
Dna2;Cdc24-YFH
  binding result: binds
Dna2;Cdc24-YFH;RPA
  binding result: binds
